Measured values reported in the DeepSol protein solubility set.

Assay: soluble on expression in E. coli; label from the status in PepcDB or PDB records

Question: For “MGSDKIHHHHHHMKTGRNDPCPCGSAKKYKNCCMDAISKQNSALLDDISQVTAMNPNLTHDELDLVLQQKAFAQNNRPIADFCGLSPAQMANWLYAPFNELNCVAISPPDDLSSSPVMRYLEVILDEAMAQNGSFKATSKGNLPTKLVKQASGLLPEFAVAQFSTNISISEYAGSNEDKFNALHYTRILAELSGIIYRKSGSYHVKKAAQKQYQSQGLTAFFLPMLEAAITKYNWGYLDSWEHDAVLSTFWLFMLWRLQSHASVDELIDEVATAFPDLLHQFPADKYRTPQAQLGMGIDSRFLKRFLQFWGFITLDPKRLFAEPREPRKVQIQPLLTQTFKFTI”, which “soluble on expression in E. coli” value is on record?
Answer: Its value is “not soluble”.

Question: For “MGSDKIHHHHHHMKTLKGPGIFLAQYIGDQAPFNTLENLAQWAAGLGFKALQIPCNHPHIFNLATAADSQTYCDEVKGLLAQHGLTISELSTHLEGQLVAVHPAYDDAFDDFAPPAYRRNPQARQQWAISAIKQAAKASSRLGLNAHATFSGALAWPYFYPWPPRKEALIQEAFKELGRLWTPILDCFDEHGVDVCYELHPGEDLHDGVTFERFLDVVNHHPRANILYDPSHMHLQQMDYLGFIDRYHARIKAFHVKDAEFTPSSKSGVYGGYQSWAERAGRFRSPGDGQIDFGAIFSKLAQYDYDGWAVLEWECCLKDSNCGAKEGAAFIDRHIIPVAQRAFDDFAATSDDRPLVRKMLGLKEEDAE”, which “soluble on expression in E. coli” value is on record?
Answer: Its value is “not soluble”.

Question: With “MGSDKIHHHHHHMKTNTSNQTTPQLATIKLFAMGCHIQISLYTTRLSAQYSQMTIDQQVAFLTSDVQQRLAYWEHIFSRFDDTSELMRLNNRGDQWSEVSSELFEVLQHAIHFVLKTQGLVTPTLLQPLWAAGYKHSFETLPKISMPSLPFTGLSAPSNVQDTTSANHANQQIGRIQLRQLTDGQHQVYLPTGMALDLNGYVKGWCAMQLAEHISRVHDWHIPCLVDMGGDIAIGIPRDPIDKPVTWGVAVAKPYFANSKHVQNDEDVAILKLSSGAVATSGQDYRRWWHDGRWQHHLIHPHDSRPVTSDVLTATVLATDTMTAEVYAKYCLLLGVKVAMAWLNKYHIAALLIDTDNKVMATSAIRPHLLQPNVVKSNVMSI” as the sequence, how does the “soluble on expression in E. coli” value read?
Answer: Its value is “not soluble”.

Question: For “MGSDKIHHHHHHMKTVNVHGFEASSKEEFQVIQSSLVKRIKLISDFKEEDIKLCAGVDLAYWTKGEKQYGVCCIIVIDYNTGEIIEKAYDYGEIEVPYMPGFLAFRELPLVIKTVKKLKNEPDIFMFDGNGYLHYNHMGIATHASFFLNKPTIGVAKSYLKVAGVDFEMPESFEGAFKDIVINEEVYGRVLRTKKDVKPIFVSCGNYIDLETCTKICSKLINNDSRLPITVRLADLETHKRRSELS”, which “soluble on expression in E. coli” value is on record?
Answer: Its value is “not soluble”.

Question: For “MGSDKIHHHHHHMKVFDVHKFDMKKEQDFLQVQFNLKNRINLSPTIHPDSINTGAGVDLAYWEQDGEPYGVCCIIVIDADTKEVIEKVHSMGRISVPYVSGFLAFRELPLIIEAAKKLETEPDVFLFDGNGYLHYNHMGVATHAAFFLGKPTIGIAKTYLKIKGCDFVTPEIEVGAYTDIIIDGEVYGRALRTRRDVKPIFLSCGNYIDLDSSYQITMSLINQESRLPIPVRLADLETHVLRTFYQKNHV”, which “soluble on expression in E. coli” value is on record?
Answer: The value was “not soluble”.

Question: Which “soluble on expression in E. coli” value does the source give for “MGSDKIHHHHHHMKVNLDYLGRLFTENELTEEERQLAEKLPAMRKEKGKLFCQRCNSTILEEWYLPIGAYYCRECLLMKRVRSDQTLYYFPQEDFPKQDVLKWRGQLTPFQEKVSEGLLQVVDKQKPTLVHAVTGAGKTEMIYQVVAKVINAGGAVCLASPRIDVCLELYKRLQQDFSCGIALLHGESEPYFRTPLVVATTHQLLKFYQAFDLLIVDEVDAFPYVDNPMLYHAVKNSVKENGLRIFLTATSTNELDKKVRLGELKRLNLPRRFHGNPLIIPKPIWLSDFNRYLDKNRLSPKLKSYIEKQRKTAYPLLIFASEIKKGEQLAEILQEQFPNEKIGFVSSVTEDRLEQVQAFRDGELTILISTTILERGVTFPCVDVFVVEANHRLFTKSSLIQIGGRVGRSMDRPTGDLLFFHDGLNASIKKAIKEIQMMNKEAGL” here?
Answer: Its value is “not soluble”.

Question: Which “soluble on expression in E. coli” value does the source give for “MGSDKIHHHHHHMKVQFLGAARTVTGSCYVVESGGVRFAVDCGMHQGNHEIEKRNYETDVYSPETIDFFLITHAHIDHTGLLPRMVRDGFTGPVYCTEPTRDLLEIMLQDSANIQEMEAEWQTRKQKRKGRKPVDPLYTFADAARVSRFFENVEYNRPFSPVEGVTVTYKDAGHILGSAFLEIEVCEHGRCSRLIFSGDLGKPNSLIVRDPEAAAAADYLFVESTYGDRNHKDESNSRQELAEAIAYSYRQGEKVIIPAFAVERTQEVLYTLFLLQKEGRMPVDMPIFLDSPLAIRATEIFRKHPRFFDEEMQKLLLSGEDPFAMPSLRLTTKTQESQAINNYTGPAVIISASGMCNAGRIKHHLRHNIWRPGASIVFVGYQAVGTPGRRIVDGARSIRLFGEEIAIQAKVFTIGGFSGHAGQSQILDWVGKFATKEMKVFLVHGEEKAQQALKAILEEKYELSVHSPGYLEEIELEPGEAVVTTGDPQRYQPQLNWDFLLSETEARMMQLRARKGDIEHADWAQQVEIRDRLLELNNEMLGILSEL” here?
Answer: Its value is “not soluble”.

Question: With “MGSDKIHHHHHHMKVQYSFEREFEELMSDLLSKYGYEMFQMDGLGDQLDVVKFTEDFVRRGIIESTIDANANVRVTNISTYFIEISKPHTYLYSLYRIWQKMKEMFGKGVADEFVEAQINGAVYLHDRHHAALMPYCFAYTLKPIVEKGLPFIKTIKSEPAKHLSTFIQHVIQFVMFASNQSSGAVGLPDFFVWMWYFVKKDLKEGIIPRDKLDWYIEQHFQILTYSLNQPIRTTQSPYTNFTYLDRNYIKAIFEGERYPDGSLITDHVEDIIALQKHYWEWVSRERERQMFTFPVLTASLLYKDGKFLDEDSARFINKINMKWQDTNWYISDSIDAVASCCRLTSSTQTLKKFSLSSEEEEKLKGRMNSIGGSDLNIGSFKVITVNLPRIALESGGDREKYLQILRHRVQLIKKALAAVREIIKERISEGLLPLYENGLMLLNRQYGTIGVTGVWESASIMGLTTEDIDGLKYTEEGEVFVDNVLDTIREEAEKGYHEYGFTFNIEQVPAEKAAVTLAQKDRFLFGEKQPFEIYSNQWVPLMANTDVLNRIRYSGKWDKKVSGGAILHINLGESFKTEEESFNMVKMIADMGVMYFAFNTKISVCEDGHAFYGERCPVCGKAKVDEYMRIVGYLVPVSAFNKERREIEYPRRQFYDSLTIRR” as the sequence, how does the “soluble on expression in E. coli” value read?
Answer: Its value is “not soluble”.

Question: For “MGSDKIHHHHHHMKVSTISIDLAKNVFQLLGMDKHAKQVFSKRLNRTQLSEFMSQQPVCDVVFEACYSSHYWGRKFLAMGHNVKLIPAQHVTPFVRGSKNDKNDAMAIYEANFRPNIRFVPIKTEAQQEILMLHRVRERLVKQRTACTNQIRGVLVDFGICFPQGHSAFERAMWDIINDESQRPIIKLMANDFWDEYQTVSTRLDRINRLIKQLVEQDPNGKILLSIPGVGPIIASAFAAAIGAGQAFNSAKELAVWLGLTPQQFASGNKSINGSITKRGDGYLRKQLIHGARTVVSHASKKNDDLNQWITQLRNRKSICTTVVATAHRLARLMWILLHKQVPYAPQYGAYQGISHEAN”, which “soluble on expression in E. coli” value is on record?
Answer: Its value is “not soluble”.

Question: With “MGSDKIHHHHHHMKVVAVGGGTGLSTLLKGLKNIDSFEITAVVSVTDEGGSSGKLRKELNVPPPGDVRNNIVALAKDEDLLAKLMSYRFSEGSFKGHSLGNLIIAALTKIEGSFSEAIRILERVLAIKGRVLPVSEDHARLVARFEDGEEVIGETNIVRKGGKIVEVRLDRPIDALPEVLEAIERADIIIFGPGSLYTSIITNVLVNGVKDAIKKSKAKKIYVCNLMTQPGETTGYRVSDHVKELERYLEQSVDFVLVNTRKPSEEVLERYRKEGSDFVEIDAENIQNTILAEPFLVEIVDPSDGQRKIRHDSVKLADVIERISRW” as the sequence, how does the “soluble on expression in E. coli” value read?
Answer: Its value is “not soluble”.

Question: With “MGSDKIHHHHHHMKVVTFGEIMLRLSPPDHKRIFQTDSFDVTYGGAEANVAAFLAQMGLDAYFVTKLPNNPLGDAAAGHLRKFGVKTDYIARGGNRIGIYFLEIGASQRPSKVVYDRAHSAISEAKREDFDWEKILDGARWFHFSGITPPLGKELPLILEDALKVANEKGVTVSCDLNYRARLWTKEEAQKVMIPFMEYVDVLIANEEDIEKVLGISVEGLDLKTGKLNREAYAKIAEEVTRKYNFKTVGITLRESISATVNYWSVMVFENGQPHFSNRYEIHIVDRVGAGDSFAGALIYGSLMGFDSQKKAEFAAAASCLKHTIPGDFVVLSIEEIEKLASGATSGRVER” as the sequence, how does the “soluble on expression in E. coli” value read?
Answer: Its value is “soluble”.

Question: Which “soluble on expression in E. coli” value does the source give for “MGSDKIHHHHHHMKYLPLGSTGLTVSECGFGCIPIIRLPQDEAVRVLRHAFDRGITFFDTANAYRDSEEKMGIAFAGIRHKLVIATKSLLRSAEGVTGHVENSLRKLGTDYLDLYQLHQIAQEKDWAEVTGPSGALEAAMAAKAAGKVRHVGVTSHNLEMALKLVRTGLFDTIQFPFNLIEEGAKDELLGAARDAGMAFICMKPFGGGVIDNAAVAFTYLRSHDGIFPIPGFESCAQVDEVLSFYERDNVVTEQDLAIMEQYRRELGKRFCRRCEYCQPCPQGVMITPAMGYPIVASRMSPAVAAEFCSKAMETVPLCTECGACIARCPYELPISDILKANYAMYRGHVAGSQGGFAGGKSS” here?
Answer: Its value is “not soluble”.

Question: For “MGSDKIHHHHHHMKYNPHKYQTYATNFILEHPIAAVFLEMGLGKSVITLTAIFDLCLDSFEIGKVLVIAPLRVARDTWPAEINKWEHLKGLEFSVAIGTKQERLAALRKPASVYLINRENVDWLVNKSGIPFDYDMVVIDELSSFKSYGAKRFKSLLKVRPRAKRIVGLTGTPSSNGLMDLWAEFRILDMGKRLGRYITHYRNSFFTPDKRNQQIVFSYKPLPGAEDAIYQLISDITISMESVDFLKMPECMINEVPVYLNDKEQSVYDRFREEMVLEFADEEIDAMNAAVLSGKLLQMANGAIYDDDKNTHIIHDRKLDALEDLIEGANGKPVLIAYWYNHDLERIKAKFNVREIKTSKDIKDWNNGDISVAVIHPASAGHGLNLQSGGSTLIWFGLTWSLELYQQTNARLWRQGQNETVVIHHIITKGTIDEDVMNALRRKEKTQSDLINAVKANLGKARDAV”, which “soluble on expression in E. coli” value is on record?
Answer: The value was “not soluble”.

Question: For “MGSDKIHHHHHHMLAALKKYLLVPKLMRLSAGAPRDHHIAWDRFWSNVKTTGASGDVLWDSGSDHEMQGYVDRLRLHLDPGLPIVDIGCGNGSFTRQLAGHFPHAVGVDVSAHAVRRARAETAGLANISYAVADMTASGAGSGLLEELAVLDTGGQAGGGANVFIRGVLHVLGERDQHALAENARAITRANGRVFLAETNFRGNAVDYVTHLGATLRSIPAPLEGAIRGLPMPGRFGPKERSLAFPASRWELIEEGPTTIETMPLSNPARSDLIPGYFAVLEGRN”, which “soluble on expression in E. coli” value is on record?
Answer: Its value is “not soluble”.

Question: For “MGSDKIHHHHHHMLCSGYLGHDMEDDCDIIIIGAGIAGTACALRCARAGLSVLLLERAEIPGSKNLSGGRLYTHALAELLPQFHLTAPLERRITHESLSLLTPDGVTTFSSLQPGGESWSVLRARFDPWLVAEAEKEGVECIPGATVDALYEENGRVCGVICGDDILRARYVVLAEGANSVLAERHGLVTRPAGEAMALGIKEVLSLETSAIEERFHLENNEGAALLFSGRICDDLPGGAFLYTNQQTLSLGIVCPLSSLTQSRVPASELLTRFKAHPAVRPLIKNTESLEYGAHLVPEGGLHSMPVQYAGNGWLLVGDALRSCVNTGISVRGMDMALTGAQAAAQTLISACQHREPQNLFPLYHHNVERSLLWDVLQRYQHVPALLQRPGWYRTWPALMQDISRDLWDQGDKPVPPLRQLFWHHLRRHGLWHLAGDVIRSLRCL”, which “soluble on expression in E. coli” value is on record?
Answer: Its value is “not soluble”.

Question: For “MGSDKIHHHHHHMLDQNQTPLIDGIKACIARPHAAFYTPGHKRGRGIAQPLADLLGEAVFGADLTELANLDNLSAPQGVIQEAQRLAAAAFGAAQTWFLVNGSTCGVEAAIMATCRPGDKIILPRNVHSSAIAGLILSGAIPIFIHPEYDQVLDIAHSMTPEAVKAALQQHPDAKAVLAVYPTYYGVCGDLEAIAQITHQYNIPLLVDEAHGAHFTFHPELPTPALAAGADLTVQSIHKVLGAMTQASMLHIQGDRINAVRVSQALQLLQSTSPSYVLLASLDAARQQMALCGKQLMSRTLQLANEARERISQIPGLSVLQPPTMTPSSGFTTLDKTRLTITVSGLGLTGFAAEEILDEQLGVTAEFATFKHLTFIISLGNTTADIEQLVQGFTTLAETTPPAKALVNPRVNSNLEYFSEISPRDAFFADSETLSIEQARDRICAEIICPYPPGIPVIMPGEVITKPAIEYLQHIQSSGGFITGCADTSLSTLKVLVIGH”, which “soluble on expression in E. coli” value is on record?
Answer: The value was “not soluble”.
